This passage reports Kd results from paper PMC4660432.

Series [1] relates to TAF1 double bromodomain (TAF1-BrD). Description: EMSA. As to conditions: EMSA: 20 mM Tris-HCl pH 7.5, 40 mM NaCl, 0.75 mM EDTA, 1 mM DTT, 1 h at 25 C, 2.5 pmol NCP, 5% native PAGE in 0.2x TBE.
Series [2] deals with K5/K8-di-acetylated nucleosome core particle (human) (UniProt P04908). Description: native gel or EMSA; 2.5 pmol NCP mixed with the TAF1-BrD at the indicated ratios; 20 mM Tris-HCl pH 7.5, 40 mM NaCl, 0.75 mM EDTA, 1 mM DTT; 1 hr at 25 °C; native 5% PAGE in 0.2x TBE; densitometry; dissociation constants estimated from triplicates.
Series [3] addresses K5/K8/K12/K16-tetra-acetylated nucleosome core particle (biochemical analyses; N11-thrombin-tagged H4) (human) (UniProt P04908). The description is as above.
The target in series [4] is unmodified nucleosome core particle (biochemical analyses; N11-thrombin-tagged H4) (human) (UniProt P04908). Described as above.
The target in series [5] is K12-acetylated nucleosome core particle (human) (UniProt P04908). Described as above.
In series [6] the target is K16-acetylated nucleosome core particle (human) (UniProt P04908). Described as above.

H4-K5/K8-di-acetylated NCP showed a Kd in series [1] (histone H4 K5ac, K8ac) of 6.1 µM. Substance H4-K5/K8/K12/K16-tetra-acetylated NCP yielded a dissociation constant (Kd) in series [1] (histone H4 K5ac, K8ac, K12ac, K16ac) of 3.9 µM. In turn, H4-K12ac NCP displayed a Kd in series [1] (histone H4 K12ac) of 12.3 µM.

On to H4-K16ac NCP, for which the Kd in series [1] (histone H4 K16ac) was found to be 13.3 µM. Turning to “TAF1 double bromodomain (from UniProt P21675 1-1893) (domain or fragment)”, the Kd was 6.1 µM in series [2]; 3.9 µM in series [3]; 19.3 µM in series [4]; 12.3 µM in series [5]; 13.3 µM in series [6]. For the substance unmodified NCP, in series [1], the Kd is 19.3 µM.

Broadly, the Kd is the concentration at which binding is half-saturated.
